Assay results as given in patent US20220119513A1 (ZOETIS SERVICES, published 2022).
Positions count from the first letter of the chain named. Names and notes keep the numbering of the source.

T1: TGFβ3 (R&D Systems) (Homo sapiens (Human), UniProt P10600 301-412, Active TGFβ3 is a disulfide-linked homodimer of this chain; one copy is given.)
T1 sequence: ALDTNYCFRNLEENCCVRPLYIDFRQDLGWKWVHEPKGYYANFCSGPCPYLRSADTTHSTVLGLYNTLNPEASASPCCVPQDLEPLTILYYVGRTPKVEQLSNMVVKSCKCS

T2: TGFβ2 (R&D Systems)
T2 sequence (P61812 303-414, species assumed, looked up): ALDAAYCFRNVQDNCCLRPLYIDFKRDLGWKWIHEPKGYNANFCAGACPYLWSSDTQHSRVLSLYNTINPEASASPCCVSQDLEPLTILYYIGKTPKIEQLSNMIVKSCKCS

B1: Can-SL501-VH3 D108K / Can-SL501-VL2 (antibody, V domains shown)
VH: EVQLVESGGDLVKPGGSLRLSCVASGFTFSSYGMHWVRQAPGKELEWVAVISYDGSIKYYADAVKGRFTISRDNAKNTLYLQMNSLRAEDTAVYYCARTGEYSGYDTKPQYSWGQGTTVTVSS
VL: EIVMTQSPGSLAGSAGESVSINCRASQGIGDDLGWYQQKPGERPKLLIYGTSTLQSGVPARFSSSGSGTDFTLTINNLQAEDVGDYYCLQDSNYPLTFGAGTK
B2: Can-SL501-VH3 D108R / Can-SL501-VL2 (antibody, V domains shown)
VH: B1 VH with K108R
VL: B1 VL
B3: Can-SL501-VH3 P109T / Can-SL501-VL2 (antibody, V domains shown)
VH: B1 VH with K108D, P109T
VL: B1 VL
B4: Can-SL501-VH3 P109A / Can-SL501-VL2 (antibody, V domains shown)
VH: B1 VH with K108D, P109A
VL: B1 VL
B5: Can-SL501-VH3 Q110N / Can-SL501-VL2 (antibody, V domains shown)
VH: B1 VH with K108D, Q110N
VL: B1 VL
B6: Can-SL501-VH3 Q110D / Can-SL501-VL2 (antibody, V domains shown)
VH: B1 VH with K108D, Q110D
VL: B1 VL
B7: Can-SL501-VH3 Q110E / Can-SL501-VL2 (antibody, V domains shown)
VH: B1 VH with K108D, Q110E
VL: B1 VL
B8: Can-SL501-VH3 Q110K / Can-SL501-VL2 (antibody, V domains shown)
VH: B1 VH with K108D, Q110K
VL: B1 VL
B9: Can-SL501-VH3 Y111F / Can-SL501-VL2 (antibody, V domains shown)
VH: B1 VH with K108D, Y111F
VL: B1 VL
B10: Can-SL501-VH3 Y111I / Can-SL501-VL2 (antibody, V domains shown)
VH: B1 VH with K108D, Y111I
VL: B1 VL
B11: Can-SL501-VH3 Y111L / Can-SL501-VL2 (antibody, V domains shown)
VH: B1 VH with K108D, Y111L
VL: B1 VL
B12: Can-SL501-VH3 Y111T / Can-SL501-VL2 (antibody, V domains shown)
VH: B1 VH with K108D, Y111T
VL: B1 VL
B13: Can-SL501-VH3 Y111E / Can-SL501-VL2 (antibody, V domains shown)
VH: B1 VH with K108D, Y111E
VL: B1 VL
B14: Can-SL501-VH3 S112E / Can-SL501-VL2 (antibody, V domains shown)
VH: B1 VH with K108D, S112E
VL: B1 VL
B15: Can-SL501-VH3 S112Q / Can-SL501-VL2 (antibody, V domains shown)
VH: B1 VH with K108D, S112Q
VL: B1 VL
B16: Can-SL501-VH3 S112D / Can-SL501-VL2 (antibody, V domains shown)
VH: B1 VH with K108D, S112D
VL: B1 VL
B17: affinity matured HcLb 259 (antibody, V domains shown)
VH: EVQLVQSGAEVKKPGASVKVSCKTSGYTFITYWMNWVRQAPGAGLDWMGQIFPAWGMTNYNEMFEGRVTLTADTSTSTAYMELSSLRAGDIAVYYCARGYGNYALDAMDYWGQGTLVTVSS
VL: DIVMTQTPPSLSVSPRETASISCRASESVDSYGNSFMHWYLQKPGQSPQLLIYLASNLESGVSDRFSGSGSGTDFTLRISRVEANDTGVYYCQQNNEDPLTFGQ
notes: full IgG; constant regions not restated
B18: affinity matured HcLb 261 (antibody, V domains shown)
VH: B17 VH with I30M, M57S
VL: B17 VL
notes: as for B17
B19: affinity matured HcLb 262 (antibody, V domains shown)
VH: B17 VH with T31K, M57S
VL: B17 VL
notes: as for B17
B20: affinity matured HcLb 263 (antibody, V domains shown)
VH: B17 VH with T28I, M57S
VL: B17 VL
notes: as for B17
B21: affinity matured HcLb 260 (antibody, V domains shown)
VH: SEVQLVQSGAEVKKPGASVKVSCKTSGYTFITYWMNWVRQAPGAGLDWMGQIFPAWGVTNYNEMFEGRVTLTADTSTSTAYMELSSLRAGDIAVYYCARGYGNYALDAMDYWGQGTLVTVSS
VL: B17 VL
notes: as for B17
B22: felHclb_heterochimera-14 (antibody, V domains shown)
VH: QVLLVQSGAEVRTPGASVKIFCKASGYIFITYYMHWVRQSPAQGLEWMGQIFPASGSTNYNEMFEGRLTLTADTSTNTAYMELSSLRSADTAMYYCARGDGNYALDAMDYWGQGTSVTVSS
VL: DIVLTQTPASLAVSLGQRATISCRASESVDSYGNSFMHWYQQKSGQPPKLLIYLASNLESGVPARFSGSGSRTDFTLTIDPVEADDAATYYCQQNNEDPLTFGAGTK
notes: hetero-pairing; also called felHclbH1-1x/mHclbVL
B23: felHclb_heterochimera-12 (antibody, V domains shown)
VH: B22 VH with Q50S, N59S, N61A, E62Q, M63K, E65Q
VL: B22 VL
notes: hetero-pairing; also called felHclbH1-1/mHclbVL
B24: felHclb_heterochimera-13 (antibody, V domains shown)
VH: B22 VH with T13R, V37L, S40A, L45F, N77D, M93V, Q113H, S116I
VL: B22 VL
notes: hetero-pairing; also called felHclbH636x/mHclbVL
B25: felHclb_heterochimera-16 (antibody, V domains shown)
VH: B22 VH with T13K, I28T, V37L, S40A, A42E, T115A, S116L
VL: B22 VL
notes: hetero-pairing; also called felHclbH618x/mHclbVL
B26: felHclb_heterochimera-15 (antibody, V domains shown)
VH: QVLLVQSGAEVRKPGASVKIFCKASGYTFITYYMHWLRQAPEQGLEWMGRIFPASGSTSYAQKFQGRLTLTADTSTNTAYMELSSLRSADTAMYYCARGDGNYALDAMDYWGQGALVTVSS
VL: B22 VL
notes: hetero-pairing; also called felHclbH618s/mHclbVL
B27: felHclb_heterochimera-1 (antibody, V domains shown)
VH: B26 VH with K13R, T28I, E42A, L45F, R50S, N77D, M93V, Q113H, A115T, L116I
VL: B17 VL
notes: hetero-pairing
B28: felHclb_heterochimera-4 (antibody, V domains shown)
VH: B22 VH
VL: B17 VL
notes: hetero-pairing
B29: felHclb_heterochimera-2 (antibody, V domains shown)
VH: B22 VH with Q50S, N59S, N61A, E62Q, M63K, E65Q
VL: B17 VL
notes: hetero-pairing
B30: felHclb_heterochimera-5 (antibody, V domains shown)
VH: B26 VH
VL: B17 VL
notes: hetero-pairing

Molecular target: TGFβ1 (R&D Systems)
Experiment: cell-based or functional assay

Binder | CMVIC pSmad-3, IC50 [nM]
B1 | 10.9
B2 | 25.2
B3 | 30
B4 | 20.8
B5 | 8.95
B6 | 4.83
B7 | 6.65
B8 | 30.5
B9 | 43.3
B10 | 50.2
B11 | 32.6
B12 | 19.6
B13 | 46.9
B14 | 5.03
B15 | 5.02
B16 | 8.78

Molecular target: T1, TGFβ3 (R&D Systems)
Experiment: cell-based or functional assay

Binder | pSmad-3, IC50 [nM]
B17 | 1.48
B18 | 1.2
B19 | 1.37
B20 | 1.03
B21 | 1.24

Molecular target: T2, TGFβ2 (R&D Systems)
Experiment: cell-based or functional assay

Binder | pSmad-3, IC50 [nM]
B17 | 1.37
B18 | 1.15
B19 | 1.85
B20 | 2.1
B21 | 1.64

Molecular target: TGFβ1 (R&D Systems)
Experiment: cell-based or functional assay
Remark: another data set of the same source

Binder | pSmad-3, IC50 [nM]
B17 | 0.99
B18 | 0.69
B19 | 3.16
B20 | 1.41
B21 | 1.33

Molecular target: T3, TGFβ1 (R&D Systems)
T3 construct: also called TGFB1
T3 sequence (P01137 279-390): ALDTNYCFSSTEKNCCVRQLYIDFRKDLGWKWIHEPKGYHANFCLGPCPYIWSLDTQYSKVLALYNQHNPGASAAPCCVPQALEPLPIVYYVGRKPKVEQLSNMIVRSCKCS
Experiment: SPR full titration

Binder | Kd [nM]
B1 | 0.0346
B2 | 0.0651
B3 | 0.0836
B4 | 0.135
B5 | 0.0809
B6 | 0.0503
B7 | 0.0657
B8 | 0.111
B9 | 0.065
B10 | 0.0308
B12 | 0.0235
B13 | 0.0238
B14 | 0.0153
B15 | 0.00909
B16 | 0.0196

Molecular target: T3, TGFβ1 (R&D Systems)
Experiment: single point SPR

Binder | Kd [nM]
B1 | 0.283
B2 | 0.759
B3 | 0.752
B4 | 1.1
B5 | 5.64
B6 | 8.01
B7 | 13.5
B8 | 5.11
B9 | 8.04
B10 | 0.562
B11 | 1.11
B12 | 0.457
B13 | 4.98
B14 | 0.487
B15 | 4.8
B16 | 7

Molecular target: T1, TGFβ3 (R&D Systems)
Experiment: SPR full titration

Binder | Kd [nM]
B17 | 0.78
B18 | 0.87
B19 | 0.856
B20 | 0.37
B21 | 0.79

Molecular target: T2, TGFβ2 (R&D Systems)
Experiment: SPR full titration

Binder | Kd [nM]
B17 | 3.75
B18 | 3.92
B19 | 6.73
B20 | 2.91
B21 | 4.36

Molecular target: T3, TGFβ1 (R&D Systems)
Experiment: SPR full titration
Remark: another data set of the same source

Binder | Kd [nM]
B17 | 3.05
B18 | 6.18
B19 | 6.18
B20 | 3.76
B21 | 3.79

Molecular target: T1, TGFβ3 (R&D Systems)
Experiment: SPR

Binder | binding result
B22 | no binding
B23 | no binding
B24 | no binding
B25 | no binding
B26 | no binding
B27 | no binding
B28 | no binding
B29 | no binding
B30 | no binding
